Test results as given in US7105488B1, “G protein-coupled receptor antagonists” (priority 1998, dated 2006).
Where a SMILES comes first, the peptide text is derived from it. Where no end group is shown, it is not given here. rhodamine = not defined here; Rhod = not defined here

Legend:
[1] = biological target: CXCR4 receptor (Homo sapiens, UniProt P61073); assay: Inhibition of SDF-1α-induced intracellular calcium release (Fura-2/AM) in HeLa and U87 cells; type: cell-based; details: for Decrease in antagonist potency relative to F-2-2: structure-activity of TM2 peptides
Sequence of CXCR4 receptor (Homo sapiens, UniProt P61073) (P61073 whole entry): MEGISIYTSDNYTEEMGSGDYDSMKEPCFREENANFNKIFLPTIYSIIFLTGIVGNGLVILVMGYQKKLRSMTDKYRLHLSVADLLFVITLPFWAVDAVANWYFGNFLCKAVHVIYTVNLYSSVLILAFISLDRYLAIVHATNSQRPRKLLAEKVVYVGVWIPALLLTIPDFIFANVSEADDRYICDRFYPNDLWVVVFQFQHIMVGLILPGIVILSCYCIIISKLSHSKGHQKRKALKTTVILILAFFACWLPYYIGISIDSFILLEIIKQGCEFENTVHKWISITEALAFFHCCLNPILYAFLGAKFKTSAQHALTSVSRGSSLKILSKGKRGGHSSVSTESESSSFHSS
Description: The effect of the peptides on CXCR4-mediated calcium fluxes in HeLa cells that naturally express the CXCR4 receptor and U87 cells stably expressing the CXCR4 receptor was tested as follows. Cells grown on Nunc cover glass chamber slides were incubated with 1 micromolar Fura-2/AM for 20 min in a CO2-incubator, rinsed with PBS and mounted on the stage of a Zeiss Axiovert inverted microscope. [Ca^2+]i measurements were performed using an Attofluor digital imaging system (Atto Instruments, Rockville, Md.). Fluorescence of Fura was excited at alternating wavelength of 340 and 380 nm. […] Calibrations of [Ca^2+]i signals were performed using Ca^2+ standards containing 1 micromolar Fura. CXCR4 antagonists were tested on HeLa cells and U87 cells. Stromal cell-derived factor-1α (SDF-1α) was used as a specific CXCR4 agonist. CCR5 antagonists, which were used in selectivity studies as described below, were tested on HEK (human kidney […]) cells stably expressing the CCR5 receptor and RANTES was used as an agonist. The antagonist activity of the peptides was evaluated by measuring the inhibition of agonist-evoked intracellular Ca^2+i release. These measurements were carried out in Fura-2/AM-treated cells, utilizing an Attofluor digital imaging system as described above. The agonist was SDF-1 α.

[2] = biological target: T1, rat cholecystokinin receptor type A (CCKAR) (rat, UniProt P30551 1-444); assay: cell-based or functional assay
T1 sequence (looked up): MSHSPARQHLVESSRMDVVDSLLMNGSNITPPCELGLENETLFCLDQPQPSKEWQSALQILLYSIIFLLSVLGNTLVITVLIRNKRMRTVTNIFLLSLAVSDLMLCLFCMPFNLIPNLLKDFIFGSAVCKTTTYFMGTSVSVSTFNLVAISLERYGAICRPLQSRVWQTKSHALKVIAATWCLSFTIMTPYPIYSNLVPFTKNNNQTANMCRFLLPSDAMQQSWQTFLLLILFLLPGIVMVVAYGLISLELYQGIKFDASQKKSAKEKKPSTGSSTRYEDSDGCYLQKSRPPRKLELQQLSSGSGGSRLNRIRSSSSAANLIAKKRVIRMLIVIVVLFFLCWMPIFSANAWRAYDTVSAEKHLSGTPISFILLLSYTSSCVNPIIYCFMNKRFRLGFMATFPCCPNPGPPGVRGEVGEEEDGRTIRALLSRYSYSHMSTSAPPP

[3] = biological target: T2, CXCR4 receptor (UniProt P61073 1-352, limits assumed); assay: cell-based or functional assay
T2 sequence (P61073 whole entry): as the sequence (P61073 whole entry) above

[4] = biological target: T2, CXCR4 receptor; assay: cell-based or functional assay; remark: listed apart in the source
[5] = biological target: T2, CXCR4 receptor; assay: cell-based or functional assay; remark: listed apart in the source
[6] = biological target: T1, rat cholecystokinin receptor type A …; assay: inhibition of binding of fluorescent agonist RG-CCK-8 to CHO cells expressing rat CCKAR, quantitative confocal laser scanning microscopy
Description: None of CCKAR-derived peptides served as antagonists of chemokine receptors and none could inhibit HIV-1 infection. The activity of the antagonists in inhibiting signaling through the receptor was compared to the ability to prevent agonist binding (Table 4). Inhibition of signaling was assessed in CCK-8 evoked intracellular calcium release in FURA-2/AM treated CHO cells stably transfected with rat CCKAR (Tarasova, et al. (1997) *J. Biol. Chem.* 272:14817). Inhibition of ligand binding was measured with the use of a fluorescent agonist, rhodamine green CCK-8 (RG-CCK-8) and quantitative confocal laser scanning microscopy (Tarasova, et al. (1997) *J. Biol. Chem.* 272:14817). Peptides derived from the first, second, and sixth transmembrane domains inhibited CCK-induced signaling through the CCKAR receptor. […] A peptide derived from the sixth domain, CCKAR-6-1, was active in inhibition of signaling, but had very low activity in inhibition of RG-CCK-8 binding.

[7] = biological target: T2, CXCR4 receptor; assay: cell-based or functional assay; remark: listed apart in the source

KAVHVIYTVNLYSSVLILAFISL-NH2 [Peptide F-3-1]
Concentration, required for complete inhibition of [Ca^2+I] release ([1]; SDF-1α-induced, Table 1): >50 µM

LLFVITLPFWAVDAVANWYFGNKK (F-2-8 GPCR CXCR4) [Peptide F-2-8]
Concentration, required for complete inhibition of [Ca^2+I] release ([1]; TM2-derived peptides, Table 3): 20 µM

LLFVITLPFWAVDAVANDD (F-2-5 GPCR CXCR4) [Peptide F-2-5]
Concentration, required for complete inhibition of [Ca^2+I] release ([1]; TM2-derived peptides, Table 3): 10 µM

LLFVITLPFWAVDAVANWYFGN (F-2-1 GPCR CXCR4) [Peptide F-2-1]
Concentration, required for complete inhibition of [Ca^2+I] release ([1]; TM2-derived peptides, Table 3): 5 µM
Decrease in antagonist potency relative to F-2-2 [1]: more than ten-fold

DDIFLPTIYSIIFLTGIV-HN2 (DDIFLPTIYSIIFLTGIV-NH2) [Peptide F-1-5]
Concentration, required for complete inhibition of [Ca^2+I] release ([1]; SDF-1α-induced, Table 1): >30 µM

KVYVGVWIPALLLTLPDFIF (KVYVGVWIPALLLTIPDFIF; F-4-1 GPCR CXCR4) [Peptide F-4-1]
Antagonist activity on CXCR4 signaling, in words [1]: abolished the antagonist activity
Concentration, required for complete inhibition of [Ca^2+I] release ([1]; SDF-1α-induced, Table 1): >50 µM

CC[C@H](C)[C@H](NC(=O)CNC(=O)[C@@H](NC(=O)[C@H](Cc1ccc(O)cc1)NC(=O)[C@H](Cc1ccc(O)cc1)NC(=O)[C@@H]1CCCN1C(=O)[C@H](CC(C)C)NC(=O)[C@H](Cc1c[nH]c2ccccc12)NC(=O)[C@H](CS)NC(=O)[C@H](C)NC(=O)[C@H](Cc1ccccc1)NC(=O)[C@H](Cc1ccccc1)NC(=O)[C@H](C)NC(=O)[C@H](CC(C)C)NC(=O)[C@@H](NC(=O)[C@H](CC(C)C)NC(=O)[C@@H](NC(=O)[C@@H](N)C(C)C)[C@@H](C)CC)[C@@H](C)CC)[C@@H](C)CC)C(=O)N[C@@H](CO)C(=O)N[C@H](C(=O)N[C@@H](CC(=O)O)C(=O)O)[C@@H](C)CC [Peptide F-6-1] (H-VILILAFFACWLPYYIGISID-OH; N-terminus and C-terminus assumed)
Concentration, required for inhibition of signal transduction ([1]; SDF-1α-induced intracellular calcium release, Table 2): 10 µM

VITLPFWAVDAVANWYFGNKK (F-2-4 GPCR CXCR4) [Peptide F-2-4]
Concentration, required for complete inhibition of [Ca^2+I] release ([1]; TM2-derived peptides, Table 3): >50 µM
Decrease in antagonist potency relative to F-2-2 [1]: 20 fold

AcLLFVITLPFWAVDAVANWYFGNDDK(Rhod)D (Ac-LLFVITLPFWAVDAVANWYFGNDDK(rhodamine)D; reading uncertain) [Rhod - AcF-2-2]
Concentration, required for complete inhibition of [Ca^2+I] release ([1]; TM2-derived peptides, Table 3): 8 µM

B1: CCKAR-TM-5-3 (#45) (peptide)
peptide: DDQTFLLLILFLLPGIVMVVAYGL
Concentration, required for inhibition of signaling (CCK-8-induced intracellular calcium release) [2]: > 50 µM

B2: Rhod - AcF-2-2 (peptide)
peptide: Ac-LLFVITLPFWAVDAVANWYFGNDDK(Rhod)D
modifications: reading uncertain
Concentration, required for complete inhibition of [Ca^2+I] release [3]: 8 µM

B3: F-2-8 (peptide)
peptide: LLFVITLPFWAVDAVANWYFGNKK
antagonist activity relative to F-2-2 [4]: 100 fold
Concentration, required for complete inhibition of [Ca^2+I] release [3]: 20 µM

B4: F-7-1 (peptide)
peptide: ALAFFHCCLNPILYAFLGAK-NH2
modifications: cysteine pairing not given here
Concentration, required for complete inhibition of [Ca^2+I] release (SDF-1α-induced) [5]: > 100 µM

B5: CCKAR-TM-2-1 (peptide)
peptide: FLLSLAVSDLMLCLFCMPFNLP
notes: also called CCKAR-2-1; CCKAR-TN-2-1
IC50 [6]: 0.5 µM
Concentration, required for inhibition of signaling (CCK-8-induced intracellular calcium release) [2]: 2 µM

B6: F-2-1 (peptide)
peptide: LLFVITLPFWAVDAVANWYFGN
antagonist potency relative to F-2-2 [4]: > 10 fold
Concentration, required for complete inhibition of [Ca^2+I] release [3]: 5 µM
Concentration, required for complete inhibition of [Ca^2+I] release (SDF-1α-induced) [5]: 5 µM

B7: F-5-1 (peptide)
peptide: HIMVGLILPGIVILSCYCIII-NH2
modifications: cysteine pairing not given here
Concentration, required for complete inhibition of [Ca^2+I] release (SDF-1α-induced) [5]: > 50 µM

B8: F-4-2 (peptide)
peptide: VYVGVWIPALLLTIPDFIFANDD
Concentration, required for inhibition of signal transduction (µM) (SDF-1α-induced intracellular calcium release) [7]: 5 µM
EC50 in anti-HIV-1 assay (µM) (cytoprotection, CEM-SS cells infected with HIV-1RF) [7]: 0.3 µM

B9: CCKAR-TM-1-6 (peptide)
peptide: DDEWQSALQILLYSIIFLLSVLGNTLVITV
notes: Synthetic peptide from the first transmembrane domain of rat CCKAR
IC50 [6]: 20 µM
Concentration, required for inhibition of signaling (CCK-8-induced intracellular calcium release) [2]: 50 µM

B10: F-2-4 (peptide)
peptide: VITLPFWAVDAVANWYFGNKK
Concentration, required for complete inhibition of [Ca^2+I] release [3]: > 50 µM

B11: F-2-6 (peptide)
peptide: LSVADLLFVITLPFWAVDAVANDD
Concentration, required for complete inhibition of [Ca^2+I] release [3]: 20 µM

B12: F-4-1 (peptide)
peptide: KVYVGVWIPALLLTIPDFIF
Concentration, required for complete inhibition of [Ca^2+I] release (SDF-1α-induced) [5]: > 50 µM

B13: AcF-2-5 (peptide)
peptide: Ac-LLFVITLPFWAVDAVANDD
Concentration, required for complete inhibition of [Ca^2+I] release [3]: 10 µM

B14: F-2-5 (peptide)
peptide: LLFVITLPFWAVDAVANDD
potency relative to F-2-2 [4]: 20 fold
Concentration, required for complete inhibition of [Ca^2+I] release [3]: 10 µM

B15: CCKAR-TM-6-4 (#77) (peptide)
peptide: IVVLFFLCWMPIFSANAWRAYDTVDD
IC50 [6]: > 50 µM
Concentration, required for inhibition of signaling (CCK-8-induced intracellular calcium release) [2]: 5 µM

B16: CCKAR-TM-4-2 (#71) (peptide)
peptide: VIAATWCLSFTIMTPYPIYSNLVPFTDD
Concentration, required for inhibition of signaling (CCK-8-induced intracellular calcium release) [2]: > 50 µM

B17: F-6-1 (peptide)
peptide: VILILAFFACWLPYYIGISID
Concentration, required for inhibition of signal transduction (µM) (SDF-1α-induced intracellular calcium release) [7]: 10 µM
EC50 in anti-HIV-1 assay (µM) (cytoprotection, CEM-SS cells infected with HIV-1RF) [7]: > 50 µM
Concentration, required for complete inhibition of [Ca^2+I] release (SDF-1α-induced) [5]: 10 µM

B18: F-2-2 (peptide)
peptide: LLFVITLPFWAVDAVANWYFGNDD
Concentration, required for inhibition of signal transduction (µM) (SDF-1α-induced intracellular calcium release) [7]: 0.2 µM
EC50 in anti-HIV-1 assay (µM) (cytoprotection, CEM-SS cells infected with HIV-1RF) [7]: 2.27 µM
Concentration, required for complete inhibition of [Ca^2+I] release [3]: 0.2 µM
